Assay results published in article PMC10148881 (2023).
Residue numbers refer to the chain shown, from its start. Values joined by “and” are separate entries in the source; they are usually repeats but may differ in a detail not shown here. Equal entries are not always repeated. Ends that are not written are not given here.

T1: Pirh2 I107D (Homo sapiens)
T1 chain: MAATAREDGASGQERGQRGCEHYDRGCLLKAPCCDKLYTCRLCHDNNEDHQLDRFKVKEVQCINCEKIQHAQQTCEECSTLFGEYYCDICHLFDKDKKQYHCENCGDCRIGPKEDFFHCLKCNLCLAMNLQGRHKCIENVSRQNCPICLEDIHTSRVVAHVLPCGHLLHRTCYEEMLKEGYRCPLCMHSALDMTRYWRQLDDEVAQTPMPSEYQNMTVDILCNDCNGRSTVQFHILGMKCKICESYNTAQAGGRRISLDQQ

T2: Pirh2 with Ile110 substituted with a negatively charged residue (human, UniProt Q96PM5 1-261)
T2 sequence (Q96PM5 whole entry, looked up) 1: T1 chain with D107I
T2 sequence (Q96PM5 whole entry, looked up) 2: T1 chain with D107I

B1: Ala6/C-degron peptide (sequence: YKTSAAAAAA) (peptide)
peptide: YKTSAAAAAA
modifications: not fully specified
B2: Ala6/C-degron peptide (sequence: YKTSAAAAAA) (peptide)
peptide: YKTSAAAAAA
B3: Ala6/C-degron peptide with Ala-2 substituted with isoleucine (peptide)
chain: YKTSAAAAIA
B4: Ala6/C-degron peptide with Ala-3 substituted with isoleucine (peptide)
chain: YKTSAAAIAA
B5: Ala6/C-degron peptide with Ala-3 substituted with lysine (peptide)
chain: YKTSAAAKAA
B6: Ala6/C-degron peptide with Ala-3 substituted with proline (peptide)
chain: YKTSAAAPAA
B7: Pirh2 NTD + RING (residues 1–189) (domain or fragment)
chain: MAATAREDGASGQERGQRGCEHYDRGCLLKAPCCDKLYTCRLCHDNNEDHQLDRFKVKEVQCINCEKIQHAQQTCEECSTLFGEYYCDICHLFDKDKKQYHCENCGICRIGPKEDFFHCLKCNLCLAMNLQGRHKCIENVSRQNCPICLEDIHTSRVVAHVLPCGHLLHRTCYEEMLKEGYRCPLCMHS
B8: YKTSAAGA (peptide)
chain: YKTSAAGA
B9: YKTSAAPA (peptide)
chain: YKTSAAPA
B10: YKTSAAVA (peptide)
chain: YKTSAAVA
B11: Ala6/C-degron peptide with Ala-4 substituted with proline (peptide)
chain: YKTSPAAA
B12: Ala6/C-degron peptide with Ala-1 replaced with glycine (peptide)
chain: YKTSAAAAAG
B13: Ala6/C-degron peptide with the threonine mutation of Ala-5 (peptide)
chain: YKTSATAAAA
B14: YKTSAGAA (peptide)
chain: YKTSAGAA
B15: YKTSAASA (peptide)
chain: YKTSAASA
B16: YKTSAVAA (peptide)
chain: YKTSAVAA
B17: Ala6/C-degron peptide with the threonine mutation of Ala-6 (peptide)
chain: YKTSTAAAAA
B18: YKTSAAAA (peptide)
chain: YKTSAAAA
B19: YKTSASAA (peptide)
chain: YKTSASAA
B20: Ala6/C-degron peptide with the threonine mutation of Ala-3 (peptide)
chain: YKTSAAATAA
B21: Ala6/C-degron peptide with Ala-4 substituted with serine (peptide)
chain: YKTSAASAAA
B22: three-Ala peptide (peptide)
chain: YKTSAAA
B23: AAAAAA (peptide)
chain: AAAAAA

Target: T1, Pirh2 I107D
Experiment: ITC

Row | Binder | Kd [µM]
1 | B1 | 9.1

These binders were tested against T2, Pirh2 with Ile110 substituted with a … (assay: ITC).

Row | Binder | Kd [µM]
2 | B2 | 40

Target: B7
Experiment: ITC

Row | Binder | Kd [nM]
3 | B3 | 10000
4 | B4 | 1500
5 | B5 | 2100
6 | B6 | 500

Each binder was assayed against unnamed (assay: ITC).

Row | Binder | Kd
7 | B7 | 8.6 µM and 12 µM

Target: B7
Experiment: ITC
Remark: another data set of the same source

Row | Binder | Kd [nM]
8 | B8 | 22000
9 | B9 | 26000
10 | B10 | 13000
11 | B3 | 13000
12 | B11 | 57000
13 | B12 | 23000
14 | B13 | 500
15 | B14 | 2300
16 | B15 | 20000
17 | B16 | 1900
18 | B17 | 500
19 | B4 | 2700
20 | B18 | 800
21 | B19 | 3000
22 | B20 | 700
23 | B6 | 900
24 | B21 | 4500

Target: B7
Experiment: ITC
Remark: another data set of the same source

Row | Binder | Kd [nM]
25 | B22 | > 100000
26 | B23 | 900

These binders were tested against polyAla/C-degron peptide containing four Ala residues (assay: ITC).

Row | Binder | Kd [µM]
27 | B7 | 7.4

Each binder was assayed against polyAla/C-degron peptide containing five Ala residues (assay: ITC).

Row | Binder | Kd [nM]
28 | B7 | 2500
